One may read the IC50 as the concentration at which inhibition is half-maximal.

The source of these data is patent publication US20140087995A1 (published 2014).

Numbered stars: 1 amine (or outer) side, 2 acyl side, 3 side chain; on linkers, the order of the positions; unused ones are H or OH. Bridge positions count the residues as written; N and C are the ends. Square brackets hold non-standard residues; d marks the D form. Side chains are listed from the residue outwards. Ends that are not written are not given here. * marks the point of attachment. C20 diacid = O=C(O)CCCCCCCCCCCCCCCCCCC(=O)*; γGlu = O=C(O)[C@H](CCC(=O)[*:2])N[*:1]

The target in experiment [1] is T1, human calcitonin receptor (human, UniProt P30988 25-474).
T1 sequence (looked up): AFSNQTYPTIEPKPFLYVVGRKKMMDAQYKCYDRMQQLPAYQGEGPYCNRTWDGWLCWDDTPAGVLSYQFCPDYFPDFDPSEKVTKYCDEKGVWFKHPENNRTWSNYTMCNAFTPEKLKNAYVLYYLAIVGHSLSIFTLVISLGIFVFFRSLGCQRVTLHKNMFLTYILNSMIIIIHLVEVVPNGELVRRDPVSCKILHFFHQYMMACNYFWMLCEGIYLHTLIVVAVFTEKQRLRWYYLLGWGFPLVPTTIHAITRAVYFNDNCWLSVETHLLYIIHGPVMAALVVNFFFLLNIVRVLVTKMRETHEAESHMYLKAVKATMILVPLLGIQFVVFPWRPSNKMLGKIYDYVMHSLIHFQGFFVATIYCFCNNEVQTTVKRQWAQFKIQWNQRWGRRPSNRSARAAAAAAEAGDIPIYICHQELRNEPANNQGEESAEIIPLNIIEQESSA
Put plainly: cell-based or functional assay.

Experiment [2] concerns the target T2, rat amylin receptor (rat calcitonin receptor + rat RAMP 3) (rat, UniProt P32214 25-516; Q9JJ73 23-147).
T2 construct: whole, on cells; Used as membranes prepared from the transfected cells (Assay VI); also called rAmylin-R; rat amylin 3(a) receptor
T2 sequence (looked up) 1: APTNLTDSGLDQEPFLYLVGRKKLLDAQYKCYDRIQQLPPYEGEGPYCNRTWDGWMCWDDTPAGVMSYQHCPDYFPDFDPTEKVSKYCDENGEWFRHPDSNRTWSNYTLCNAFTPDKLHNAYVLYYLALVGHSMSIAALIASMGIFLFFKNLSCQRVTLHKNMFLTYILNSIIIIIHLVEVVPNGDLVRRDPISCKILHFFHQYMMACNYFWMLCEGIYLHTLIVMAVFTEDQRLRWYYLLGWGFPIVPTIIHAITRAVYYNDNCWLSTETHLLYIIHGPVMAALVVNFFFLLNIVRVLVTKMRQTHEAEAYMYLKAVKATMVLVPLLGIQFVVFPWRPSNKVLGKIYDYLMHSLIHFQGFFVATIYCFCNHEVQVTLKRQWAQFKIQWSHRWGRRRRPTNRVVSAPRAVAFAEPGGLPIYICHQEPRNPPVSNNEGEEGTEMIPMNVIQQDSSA
T2 sequence (looked up) 2: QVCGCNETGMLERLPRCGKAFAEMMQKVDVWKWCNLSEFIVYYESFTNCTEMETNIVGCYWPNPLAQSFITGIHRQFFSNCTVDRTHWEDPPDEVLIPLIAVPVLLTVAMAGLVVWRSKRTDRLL
Put plainly: SPA competition binding, displacement of 125I-rat amylin from membranes of BHK tk'ts 13 cells transfected with rat calcitonin receptor + rat RAMP 3 (Assay VI). (In a radioligand displacement assay an active substance lowers the binding of a labelled ligand.)

Experiment [3] addresses T3, rat calcitonin receptor (rat, UniProt P32214 25-516).
T3 construct: whole, on cells; Used as membranes prepared from the transfected cells (Assay VIII); also called rCTR; rat calcitonin (a) receptor
T3 sequence (looked up): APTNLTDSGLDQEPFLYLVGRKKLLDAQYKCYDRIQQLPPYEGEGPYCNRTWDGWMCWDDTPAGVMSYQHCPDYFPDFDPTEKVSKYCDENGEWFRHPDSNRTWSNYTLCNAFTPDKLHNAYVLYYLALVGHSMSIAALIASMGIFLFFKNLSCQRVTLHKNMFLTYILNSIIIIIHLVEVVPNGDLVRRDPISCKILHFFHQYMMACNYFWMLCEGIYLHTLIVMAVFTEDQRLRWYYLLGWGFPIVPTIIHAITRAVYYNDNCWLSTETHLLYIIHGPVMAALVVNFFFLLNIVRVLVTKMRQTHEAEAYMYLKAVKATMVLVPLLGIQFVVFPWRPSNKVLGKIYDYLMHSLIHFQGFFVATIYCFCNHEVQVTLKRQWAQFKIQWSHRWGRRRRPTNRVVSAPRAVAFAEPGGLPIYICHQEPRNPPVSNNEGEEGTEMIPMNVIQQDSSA
In words: SPA competition binding, displacement of 125I-calcitonin from membranes of BHK tk'ts 13 cells transfected with rat calcitonin receptor (Assay VIII).

Experiment [4] concerns the target T3, rat calcitonin receptor. Put plainly: ratio of IC50 on rat calcitonin receptor (Assay VIII) to IC50 on rat amylin receptor (Assay VI).
Experiment [5] has as its target T4, human calcitonin receptor (human, UniProt P30988 25-474).
T4 construct: whole, on cells; Used as membranes prepared from the transfected cells (Assay VII); also called hCTR; hCT
T4 sequence (looked up): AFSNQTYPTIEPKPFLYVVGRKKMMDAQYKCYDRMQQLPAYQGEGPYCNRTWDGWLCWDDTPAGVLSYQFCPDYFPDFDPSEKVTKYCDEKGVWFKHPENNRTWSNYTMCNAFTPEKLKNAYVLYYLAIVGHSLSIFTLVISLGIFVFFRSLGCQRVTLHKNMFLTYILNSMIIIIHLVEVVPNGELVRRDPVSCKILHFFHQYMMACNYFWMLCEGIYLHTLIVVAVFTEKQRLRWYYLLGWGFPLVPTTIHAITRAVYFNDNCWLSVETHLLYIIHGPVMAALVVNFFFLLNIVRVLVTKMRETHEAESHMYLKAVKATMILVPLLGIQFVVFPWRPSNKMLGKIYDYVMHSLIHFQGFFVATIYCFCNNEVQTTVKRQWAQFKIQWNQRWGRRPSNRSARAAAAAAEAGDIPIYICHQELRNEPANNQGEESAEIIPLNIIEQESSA
Put plainly: ratio of IC50 on human calcitonin receptor (Assay VII) to IC50 on human amylin receptor (Assay V). The protocol: The resulting pellet was resuspended, homogenized and centrifuged (20.000 rpm, 15 min) in a buffer containing 20 mM Na-HEPES and 0.1 mM EDTA (pH 7.4, buffer 2). The resulting pellet was resuspended in buffer 2 and protein concentration was measured (BCA protein Assay, Pierce). The homogenate was kept cold during the whole procedure. The membranes were kept at −80° C. until use. The assay was performed in a 384 well Optiplate (PerkinElmer) in a total volume of 40 ul. Membranes were mixed with SPA beads. Final concentration of membranes 35 ng/μL final and SPA beads was 0.05 mg/well. Test-compounds were dissolved in DMSO and further diluted in assay buffer (50 mM Hepes, pH 7.4, 1 mM CaCl2, 5 mM MgCl₂, 0.1% OA and 0.02% Tween20). […] The final mixture was incubated with shaking at 400 rpm for 120 min at 25° C. prior to centrifugation (1500 rpm, 10 min). Samples were analyzed on TopCounter™ (Packard). The IC₅₀ was calculated using (one site binding competition analysis) GraphPad Prism5 as a measure of receptor affinity.
Membranes were prepared in the following way; the cells were rinsed with PBS and incubated with Versene for approximately 5 min before harvesting. The cells were flushed with PBS and the cell-suspension was centrifuged for 5 min at 1000 rpm. Cells were homogenized (Ultrathurrax) in a buffer containing 20 mM Na-HEPES and 10 mM EDTA (pH 7.4) and centrifuged at 20.000 rpm for 15 min. The resulting pellet was resuspended, homogenized and centrifuged (20.000 rpm, 15 min) in a buffer containing 20 mM Na-HEPES and 0.1 mM EDTA (pH 7.4, buffer 2). The resulting pellet was resuspended in buffer 2 and protein concentration was measured (BCA protein Assay, Pierce). The homogenate was kept cold during the whole procedure. The membranes were kept at −80° C. until use. Assay was performed in a 384 well Optiplate (PerkinElmer) in a total volume of 40 ul. Membranes were mixed with SPA beads.

B1: N^-1-[(4S)-4-carboxy-4-(19-carboxynonadecanoylamino)butanoyl]-Gly[Arg1,Ala14,Arg17,Pro21,Pro27,His34]-h-amylin (peptide)
peptide: {C20 diacid-γGlu}-GRCNTATCATQRLAAFLRHSSPNFGAIPSSTNVGHNTY-NH2
modifications: disulfide 3-8
SMILES: CC[C@H](C)[C@H](NC(=O)[C@H](C)NC(=O)CNC(=O)[C@H](Cc1ccccc1)NC(=O)[C@H](CC(N)=O)NC(=O)[C@@H]1CCCN1C(=O)[C@H](CO)NC(=O)[C@H](CO)NC(=O)[C@H](Cc1c[nH]cn1)NC(=O)[C@H](CCCNC(=N)N)NC(=O)[C@H](CC(C)C)NC(=O)[C@H](Cc1ccccc1)NC(=O)[C@H](C)NC(=O)[C@H](C)NC(=O)[C@H](CC(C)C)NC(=O)[C@H](CCCNC(=N)N)NC(=O)[C@H](CCC(N)=O)NC(=O)[C@@H](NC(=O)[C@H](C)NC(=O)[C@@H]1CSSC[C@H](NC(=O)[C@H](CCCNC(=N)N)NC(=O)CNC(=O)CC[C@H](NC(=O)CCCCCCCCCCCCCCCCCCC(=O)O)C(=O)O)C(=O)N[C@@H](CC(N)=O)C(=O)N[C@@H]([C@@H](C)O)C(=O)N[C@@H](C)C(=O)N[C@@H]([C@@H](C)O)C(=O)N1)[C@@H](C)O)C(=O)N1CCC[C@H]1C(=O)N[C@@H](CO)C(=O)N[C@@H](CO)C(=O)N[C@H](C(=O)N[C@@H](CC(N)=O)C(=O)N[C@H](C(=O)NCC(=O)N[C@@H](Cc1c[nH]cn1)C(=O)N[C@@H](CC(N)=O)C(=O)N[C@H](C(=O)N[C@@H](Cc1ccc(O)cc1)C(N)=O)[C@@H](C)O)C(C)C)[C@@H](C)O
notes: 38 residues
Take B1: in experiment [1], the “hCTR funct. EC50 (pM)” value is 537 pM.

B2: N^ε1-[(4S)-4-carboxy-4-[[(4S)-4-carboxy-4-(19-carboxynonadecanoylamino)butanoyl]amino]butanoyl]-[D-Asp14,Arg17,Pro21,Pro27,Arg35]-h-amylin (peptide)
peptide: K([γGlu-γGlu-C20 diacid])CNTATCATQRLA[dD]FLRHSSPNFGAIPSSTNVGSRTY-NH2
modifications: disulfide 2-7; N-terminus assumed
SMILES: CC[C@H](C)[C@H](NC(=O)[C@H](C)NC(=O)CNC(=O)[C@H](Cc1ccccc1)NC(=O)[C@H](CC(N)=O)NC(=O)[C@@H]1CCCN1C(=O)[C@H](CO)NC(=O)[C@H](CO)NC(=O)[C@H](Cc1c[nH]cn1)NC(=O)[C@H](CCCNC(=N)N)NC(=O)[C@H](CC(C)C)NC(=O)[C@H](Cc1ccccc1)NC(=O)[C@@H](CC(=O)O)NC(=O)[C@H](C)NC(=O)[C@H](CC(C)C)NC(=O)[C@H](CCCNC(=N)N)NC(=O)[C@H](CCC(N)=O)NC(=O)[C@@H](NC(=O)[C@H](C)NC(=O)[C@@H]1CSSC[C@H](NC(=O)[C@@H](N)CCCCNC(=O)CC[C@H](NC(=O)CC[C@H](NC(=O)CCCCCCCCCCCCCCCCCCC(=O)O)C(=O)O)C(=O)O)C(=O)N[C@@H](CC(N)=O)C(=O)N[C@@H]([C@@H](C)O)C(=O)N[C@@H](C)C(=O)N[C@@H]([C@@H](C)O)C(=O)N1)[C@@H](C)O)C(=O)N1CCC[C@H]1C(=O)N[C@@H](CO)C(=O)N[C@@H](CO)C(=O)N[C@H](C(=O)N[C@@H](CC(N)=O)C(=O)N[C@H](C(=O)NCC(=O)N[C@@H](CO)C(=O)N[C@@H](CCCNC(=N)N)C(=O)N[C@H](C(=O)N[C@@H](Cc1ccc(O)cc1)C(N)=O)[C@@H](C)O)C(C)C)[C@@H](C)O
notes: not restated for each compound
Turning to B2, the IC50 came out at 1.69 nM in experiment [2] and 536 nM with rat calcitonin receptor [3].

Turning to KCNTATCATQRLADFLRHSSPNFGAIPSSTNVGSRTY-NH2 (disulfide 2-7) [[Asp14,Arg17,Pro21,Pro27,Arg35]-h-amylin], the IC50 with rat calcitonin receptor [3] worked out at 30.9 nM.

B3: N^-1-[(4S)-4-carboxy-4-(19-carboxynonadecanoylamino)butanoyl]-Gly[Arg1,His14,Arg17,Pro21,Pro27,Pro34]-h-amylin (peptide)
peptide: {C20 diacid-γGlu}-GRCNTATCATQRLAHFLRHSSPNFGAIPSSTNVGPNTY-NH2
modifications: disulfide 3-8
SMILES: CC[C@H](C)[C@H](NC(=O)[C@H](C)NC(=O)CNC(=O)[C@H](Cc1ccccc1)NC(=O)[C@H](CC(N)=O)NC(=O)[C@@H]1CCCN1C(=O)[C@H](CO)NC(=O)[C@H](CO)NC(=O)[C@H](Cc1c[nH]cn1)NC(=O)[C@H](CCCNC(=N)N)NC(=O)[C@H](CC(C)C)NC(=O)[C@H](Cc1ccccc1)NC(=O)[C@H](Cc1c[nH]cn1)NC(=O)[C@H](C)NC(=O)[C@H](CC(C)C)NC(=O)[C@H](CCCNC(=N)N)NC(=O)[C@H](CCC(N)=O)NC(=O)[C@@H](NC(=O)[C@H](C)NC(=O)[C@@H]1CSSC[C@H](NC(=O)[C@H](CCCNC(=N)N)NC(=O)CNC(=O)CC[C@H](NC(=O)CCCCCCCCCCCCCCCCCCC(=O)O)C(=O)O)C(=O)N[C@@H](CC(N)=O)C(=O)N[C@@H]([C@@H](C)O)C(=O)N[C@@H](C)C(=O)N[C@@H]([C@@H](C)O)C(=O)N1)[C@@H](C)O)C(=O)N1CCC[C@H]1C(=O)N[C@@H](CO)C(=O)N[C@@H](CO)C(=O)N[C@H](C(=O)N[C@@H](CC(N)=O)C(=O)N[C@H](C(=O)NCC(=O)N1CCC[C@H]1C(=O)N[C@@H](CC(N)=O)C(=O)N[C@H](C(=O)N[C@@H](Cc1ccc(O)cc1)C(N)=O)[C@@H](C)O)C(C)C)[C@@H](C)O
notes: as for B2
Consider B3, for which the “Ratio rCT/rAmylin binding” value with rat calcitonin receptor [4] stood at 97.7. Besides, the “Ratio hCT/hAmylin binding” value in experiment [5] amounted to 36.2. For the same molecule, the IC50 in experiment [2] was determined as 0.674 nM; in the experiment with rat calcitonin receptor [3] it was 65.9 nM.

On to {C20 diacid-γGlu}-GRCNTATCATQRLAAFLRHSSPNFGAIPSSTNVGPNTY-NH2 (disulfide 3-8, not restated for each compound), for which, in the experiment with rat calcitonin receptor [4], the “Ratio rCT/rAmylin binding” value worked out at 129. Moreover, the “Ratio hCT/hAmylin binding” value in experiment [5] amounted to 26.5. The IC50 in experiment [2] is 0.436 nM; with rat calcitonin receptor [3] it was 56.3 nM.
